According to publication PMC6778039:

Biological target: T1, ^35S-IRF3, Q14653
T1 chain: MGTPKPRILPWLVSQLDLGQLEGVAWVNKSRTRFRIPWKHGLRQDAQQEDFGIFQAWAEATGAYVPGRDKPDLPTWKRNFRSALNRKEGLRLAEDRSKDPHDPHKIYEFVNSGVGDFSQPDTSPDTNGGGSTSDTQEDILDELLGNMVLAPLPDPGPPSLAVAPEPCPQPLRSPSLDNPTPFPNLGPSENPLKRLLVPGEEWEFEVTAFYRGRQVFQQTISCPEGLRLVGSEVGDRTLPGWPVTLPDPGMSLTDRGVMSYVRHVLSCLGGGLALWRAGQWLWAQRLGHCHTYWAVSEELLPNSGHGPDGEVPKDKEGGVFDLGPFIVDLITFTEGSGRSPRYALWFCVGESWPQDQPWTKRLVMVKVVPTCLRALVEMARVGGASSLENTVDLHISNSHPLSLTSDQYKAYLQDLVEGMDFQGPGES
Assay: native gel or EMSA
Conditions: remark: other sources report otherwise

stoichiometry N: 2
B1: ^35S-IRF3, Q14653 1-427 (natural protein)
chain: MGTPKPRILPWLVSQLDLGQLEGVAWVNKSRTRFRIPWKHGLRQDAQQEDFGIFQAWAEATGAYVPGRDKPDLPTWKRNFRSALNRKEGLRLAEDRSKDPHDPHKIYEFVNSGVGDFSQPDTSPDTNGGGSTSDTQEDILDELLGNMVLAPLPDPGPPSLAVAPEPCPQPLRSPSLDNPTPFPNLGPSENPLKRLLVPGEEWEFEVTAFYRGRQVFQQTISCPEGLRLVGSEVGDRTLPGWPVTLPDPGMSLTDRGVMSYVRHVLSCLGGGLALWRAGQWLWAQRLGHCHTYWAVSEELLPNSGHGPDGEVPKDKEGGVFDLGPFIVDLITFTEGSGRSPRYALWFCVGESWPQDQPWTKRLVMVKVVPTCLRALVEMARVGGASSLENTVDLHISNSHPLSLTSDQYKAYLQDLVEGMDFQGPGES
modifications: here or on the partner: 35S label; 35S label
